According to patent US20120230939A1 (BOARD OF TRUSTEES OF THE UNIVERSITY OF ILLINOIS, published 2012):

Key:
HLA-A0201 [1] = biological target: T1, HLA-A0201 (human); test: cell-based or functional assay
T1 construct: whole, on cells; also called HLA-A201; HLA-A2

HLA-A0201 [2] = biological target: T1, HLA-A0201; test: T2 binding assay: stabilisation of HLA-A2 on T2 cells, flow cytometry
Source text: HLA-A2 expression was visualized by direct staining with FITC conjugated MA2.1 antibody or an isotype control (BD Biosciences, San Diego, Calif.) followed by analysis on a FC500 flow cytometer (Beckman Coulter, Miami, Fla.).

HLA-A0201 [3] = biological target: T1, HLA-A0201; test: T2 binding assay: HLA-A2 expression on T2 cells, flow cytometry
Procedure: Briefly, T2 cells (5×10⁵/well) were pulsed with PSA-peptide or DMSO at the designated concentration and cultured in 24-well plates overnight (18 hours) at 37° C. in 5% CO₂ atmosphere.

binding result (HLA-A0201 [2])	Molecule	further results
	anti-HLA-A2 monoclonal antibody (BB7.2)	fold decrease in cytolytic activity of CD8+ CTL induced with TEM8 298-306 against HepG2 targets (12-hour chromium release assay) (HLA-A0201 [1]): 2 fold
binds	ALQGIIHSI (Synthetic peptide, >95% purity) [TEM8 207-215 peptide]	
no binding (tested: 1 to 80 ug/ml)	TLNEKPFSV (Synthetic peptide, >95% purity) [TEM8 266-274 peptide]	
binds	SMNDGLSFI (Synthetic peptide, >95% purity) [TEM8 298-306 peptide]	
	CALPERPSLYTKVVHYRKWIK (Synthetic peptide, >95% purity, bought from Research Genetics Inc; also called 21-mer PSA 210-230 peptide) [PSA 210-230 peptide]	binding result (HLA-A0201 [3]): binds
